Data reported in patent publication US6528275B1, “Substrates and inhibitors of proteolytic enzymes” (Peptide Therapeutics Limited, priority 1996, dated 2003).

Tests used:
Assay in all cases: Der pI substrate assay with FRET peptides (fluorescence, Km, kcat/Km)
Assay type in all cases: biochemical, house dust mite
Details in all cases: other: purified Der pI; peptides SEQ ID Nos. 1-76; pH 8.25
[1] = substrate: CC(C)CC[C@H](NC(=O)[C@H](C)NC(=O)[C@@H](NC(=O)c1ccccc1N)C(C)C)C(=O)N[C@@H](CO)C(=O)N[C@@H](Cc1ccc(O)c([N+](=O)[O-])c1)C(=O)N[C@@H](CC(=O)O)C(N)=O
Experimental: (§1) Using the general techniques described above, the following compounds were prepared and assayed as potential substrates against Der pI purified as described above.
(§2) Each mixture of 20 compounds in the libraries of the apparatus described herein was screened at a concentration of 1.0 μM per compound in an assay against the cysteinyl protease Der pI.
(§3) Plate assays were carried out in 96 well plate format, using 0.1 ug of Der pI per 100 μL assay volume in each well and using 20 μM of the substrate. All assays were performed in Assay Buffer (AB; 50 mM potassium phosphate, pH 8.25 containing 1 mM ethylenediaminetetraacetic acid (EDTA) and 1 mM dithiothreitol (DTT). The Der pI enzyme is pre-activated by addition of DTT and this in incubated at room temperature for 5 min. prior to initiation of the assay. As an example for the screening methodology, each well contains a 5 μL of a 20 μM solution of the test compound in DMSO, 10 μL of a 200 μM aqueous solution of the substrate, 2, and 85 μL of Der pI in AB is added to initiate the reaction. Enzyme activity is monitored by fluorescence using 320 nm for excitation and 420 nm for the emission wavelengths using a Labsystems Fluroskan Ascent machine. Kinetic measurements were carried out using a Hitachi F-4500 Fluorescence Spectrophotometer.

[2] = substrate: CC(C)CC[C@H](NC(=O)[C@H](C)NC(=O)[C@H](CC(C)C)NC(=O)c1ccccc1N)C(=O)N[C@@H](CO)C(=O)N[C@@H](Cc1ccc(O)c([N+](=O)[O-])c1)C(=O)N[C@@H](CC(=O)O)C(N)=O
Experimental: as §1, §2, §3

[3] = substrate: CC(C)CC[C@H](NC(=O)[C@H](C)NC(=O)[C@H](CCC(N)=O)NC(=O)c1ccccc1N)C(=O)N[C@@H](CO)C(=O)N[C@@H](Cc1ccc(O)c([N+](=O)[O-])c1)C(=O)N[C@@H](CC(=O)O)C(N)=O
Experimental: as §1, §2, §3

[4] = substrate: CC(C)CC[C@H](NC(=O)[C@H](C)NC(=O)[C@H](CC[S+](C)[O-])NC(=O)c1ccccc1N)C(=O)N[C@@H](CO)C(=O)N[C@@H](Cc1ccc(O)c([N+](=O)[O-])c1)C(=O)N[C@@H](CC(=O)O)C(N)=O
Experimental: as §1, §2, §3

[5] = substrate: CC(C)CC[C@H](NC(=O)[C@H](C)NC(=O)[C@H](Cc1ccc(-c2ccccc2)cc1)NC(=O)c1ccccc1N)C(=O)N1C[C@H](O)C[C@H]1C(=O)N[C@@H](Cc1ccc(O)c([N+](=O)[O-])c1)C(=O)N[C@@H](CC(=O)O)C(N)=O
Experimental: as §1, §2, §3

[6] = substrate: CC(C)CC[C@H](NC(=O)[C@H](C)NC(=O)[C@H](Cc1ccc(-c2ccccc2)cc1)NC(=O)c1ccccc1N)C(=O)N[C@@H](Cc1ccc(O)cc1)C(=O)N[C@@H](Cc1ccc(O)c([N+](=O)[O-])c1)C(=O)N[C@@H](CC(=O)O)C(N)=O
Experimental: as §1, §2, §3

[7] = substrate: CC(C)CC[C@H](NC(=O)[C@H](C)NC(=O)[C@H](Cc1ccc(-c2ccccc2)cc1)NC(=O)c1ccccc1N)C(=O)N[C@H](C(=O)N[C@@H](Cc1ccc(O)c([N+](=O)[O-])c1)C(=O)N[C@@H](CC(=O)O)C(N)=O)C(C)(C)C
Experimental: as §1, §2, §3

[8] = substrate: CC(C)CC[C@H](NC(=O)[C@H](C)NC(=O)[C@H](Cc1ccc(-c2ccccc2)cc1)NC(=O)c1ccccc1N)C(=O)N[C@H](C(=O)N[C@@H](Cc1ccc(O)c([N+](=O)[O-])c1)C(=O)N[C@@H](CC(=O)O)C(N)=O)[C@@H](C)O
Experimental: as §1, §2, §3

[9] = substrate: CC(C)CC[C@H](NC(=O)[C@H](C)NC(=O)[C@H](Cc1ccc2ccccc2c1)NC(=O)c1ccccc1N)C(=O)N[C@@H](CO)C(=O)N[C@@H](Cc1ccc(O)c([N+](=O)[O-])c1)C(=O)N[C@@H](CC(=O)O)C(N)=O
Experimental: as §1, §2, §3

[10] = substrate: CC(C)[C@H](NC(=O)c1ccccc1N)C(=O)N[C@@H](C)C(=O)N[C@@H](CC1CCCCC1)C(=O)N[C@@H](CO)C(=O)N[C@@H](Cc1ccc(O)c([N+](=O)[O-])c1)C(=O)N[C@@H](CC(=O)O)C(N)=O
Experimental: as §1, §2, §3

[11] = substrate: CCCC[C@H](NC(=O)[C@H](C)NC(=O)[C@@H](NC(=O)[C@H](CCC(=O)O)NC(=O)c1ccccc1N)C(C)C)C(=O)N[C@@H](CO)C(=O)N[C@@H](Cc1ccc(O)c([N+](=O)[O-])c1)C(=O)N[C@@H](CC(=O)O)C(N)=O
Experimental: as §1, §2, §3

[12] = substrate: CCCC[C@H](NC(=O)[C@H](C)NC(=O)[C@@H](NC(=O)[C@H](CCCCN)NC(=O)c1ccccc1N)C(C)C)C(=O)N[C@@H](CO)C(=O)N[C@@H](Cc1ccc(O)c([N+](=O)[O-])c1)C(=O)N[C@@H](CC(=O)O)C(N)=O
Experimental: as §1, §2, §3

B1: Der pI (Dermatophagoides pteronyssinus) (protein)
chain: TNACSINGNAPAEIDLRQMRTVTPIRMQGGCGSCWAFSGVAATESAYLAYRNQSLDLAEQELVDCASQHGCHGDTIPRGIEYIQHNGVVQESYYRYVAREQSCRRPNAQRFGISNYCQIYPPNVNKIREALAQTHSAIAVIIGIKDLDAFRHYDGRTIIQRDNGYQPNYHAVNIVGYSNAQGVDYWIVRNSWDTNWGDNGYGYFAANIDLMMIEEYPYVVIL
notes: tissue SmithKline-Beecham, U.K (crude mite extract); host or cells: crude house dust mite extract
With B1 the Km [1] was 4 µM, the Km [2] was 18 µM and the Km [3] was 12 µM. It also gave a Km [4] of 20 µM, a Km [5] of 4 µM and a Km [6] of 3 µM. It also gave a Km [7] of 4 µM, a Km [8] of 2.5 µM and a Km [9] of 15 µM. For the same protein, the Km [10] was 5 µM, the Km [11] was 20 µM and the Km [12] was 15 µM.
